# Test results published in PMC12392098, “Predicting the DNA binding specificity of transcription factor mutants using family-level biophysically interpretable machine learning”.
# B1: CAGCTG probe (dsDNA)
# DNA 1: TAGCCAATAACTTCGTCCCTCAGCTGCATATAAGGAAGATCTAACCACCAATTTGG
# DNA 2: CCAAATTGGTGGTTAGATCTTCCTTATATGCAGCTGAGGGACGAAGTTATTGGCTA
# Target: ASCL2 DBD wild type (human, UniProt Q99929 50-102)
# Test: EMSA; preferred over CACGTG probe; 32P EMSA: ~50 nM probe, 0.5/1/2 uM protein, 30 min, reagents as in Feng et al., gel at 4 C; fluorescent EMSA: 5x buffer (50 mM Tris pH 7.5, 250 mM NaCl, 5 mM MgCl2, 20% glycerol, 2.5 mM DTT, 2.5 mM EDTA, 250 ug/ml poly(dI-dC), 1 mg/ml BSA) used at 1x plus half volume protein dialysis buffer (20 mM HEPES pH 7.9, 200 mM NaCl, 10% glycerol, 2 mM MgCl2), gel 0.5x TBE at 4 C
# Conditions: protein: recombinant; tags: N-terminal 6xHis; mScarlet fusion; chain copies: 2; label: 32P (SRI primer strand); blunt
# Sequence of ASCL2 DBD wild type (Q99929 50-102): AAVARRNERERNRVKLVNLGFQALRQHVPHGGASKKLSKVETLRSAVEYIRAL
binder,measurement,value
B1,binding result,binds
